# Laboratory results from patent US12240882B2, “Fusion proteins comprising an engineered knottin peptide and uses thereof” (The Board of Trustees of the Leland Stanford Junior …, priority 2010, dated 2025).
# Entries after “also recorded” stand apart in the source; their conditions may differ.
# T1: Gas6 (Homo sapiens, UniProt Q14393)
# T1 sequence (Q14393 31-678): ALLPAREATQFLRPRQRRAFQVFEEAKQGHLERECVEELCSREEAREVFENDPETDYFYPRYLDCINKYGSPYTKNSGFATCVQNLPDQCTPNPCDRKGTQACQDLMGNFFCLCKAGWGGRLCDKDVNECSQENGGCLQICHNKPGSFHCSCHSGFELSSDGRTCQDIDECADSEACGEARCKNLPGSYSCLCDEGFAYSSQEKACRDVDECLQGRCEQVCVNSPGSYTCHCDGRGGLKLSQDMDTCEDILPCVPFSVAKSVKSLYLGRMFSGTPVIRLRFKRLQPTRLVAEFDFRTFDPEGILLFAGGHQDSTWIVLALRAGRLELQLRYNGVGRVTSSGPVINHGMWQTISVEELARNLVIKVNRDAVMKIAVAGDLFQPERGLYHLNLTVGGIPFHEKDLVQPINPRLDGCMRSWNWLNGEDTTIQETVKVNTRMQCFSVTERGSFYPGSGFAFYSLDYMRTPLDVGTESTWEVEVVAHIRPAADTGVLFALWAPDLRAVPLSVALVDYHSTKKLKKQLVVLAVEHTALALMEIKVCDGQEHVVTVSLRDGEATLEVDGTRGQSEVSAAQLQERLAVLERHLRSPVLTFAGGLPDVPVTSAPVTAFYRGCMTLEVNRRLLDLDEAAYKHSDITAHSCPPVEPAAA
# Experiments:
# αvβ3 integrin [1] = target: T2, αvβ3 integrin (Homo sapiens, UniProt P05106+P06756); test: cRGD competition of EETI 2.5D-Axl binding to K562-αvβ3 cells
# Gas6 [2] = target: T1, Gas6; test: Yeast display binding to Gas6 in presence of saturating αvβ3 integrin; conditions: 20 or 100 nM Gas6 with 200 nM αvβ3 integrin
# αvβ3 integrin [3] = target: T2, αvβ3 integrin; test: Yeast display binding to αvβ3 integrin in presence of saturating Gas6; conditions: 100 or 200 nM αvβ3 integrin with 100 nM Gas6
# αvβ3 integrin [4] = target: T2, αvβ3 integrin; test: Binding of soluble EETI 2.5D-Axl to K562-αvβ3 cells (flow cytometry); conditions: soluble protein from Pichia pastoris
# αvβ3 integrin [5] = target: T2, αvβ3 integrin; test: Yeast display binding of EETI 2.5D-Axl fusion to soluble αvβ3 integrin; conditions: 20, 50 or 100 nM αvβ3 integrin
# [6] = circular dichroism
# Gas6 [7] = target: T1, Gas6; test: Yeast display binding of EETI 2.5D-Axl fusion to Gas6
# [8] = Gel filtration chromatography of knottin-Fc; format: physicochemical
# PC3 cells = test: Inhibition of PC3 cell adhesion to vitronectin by knottin-Fc proteins; format: cell-based; conditions: knottin-Fc fusions, FIG. 10
# Description: Negative control is an irrelevant protein.
# In another tumor model, the ability of the knottin-Fc proteins to inhibit PC3 cell adhesion to the extracellular matrix (ECM) protein vitronectin was analyzed. […] As the inhibition of integrin-ECM adhesion induces caspase-mediated apoptosis, this biological mechanism will be explored in future studies.
# sk0v3 cells = test: Binding of knottin-Fc proteins to sk0v3 cells; conditions: measured against wild-type EETII-Fc
# Description: The binding of the knottin-Fc proteins to tumor cell lines were then measured.
# T2 sequence (P06756 31-889 limits assumed): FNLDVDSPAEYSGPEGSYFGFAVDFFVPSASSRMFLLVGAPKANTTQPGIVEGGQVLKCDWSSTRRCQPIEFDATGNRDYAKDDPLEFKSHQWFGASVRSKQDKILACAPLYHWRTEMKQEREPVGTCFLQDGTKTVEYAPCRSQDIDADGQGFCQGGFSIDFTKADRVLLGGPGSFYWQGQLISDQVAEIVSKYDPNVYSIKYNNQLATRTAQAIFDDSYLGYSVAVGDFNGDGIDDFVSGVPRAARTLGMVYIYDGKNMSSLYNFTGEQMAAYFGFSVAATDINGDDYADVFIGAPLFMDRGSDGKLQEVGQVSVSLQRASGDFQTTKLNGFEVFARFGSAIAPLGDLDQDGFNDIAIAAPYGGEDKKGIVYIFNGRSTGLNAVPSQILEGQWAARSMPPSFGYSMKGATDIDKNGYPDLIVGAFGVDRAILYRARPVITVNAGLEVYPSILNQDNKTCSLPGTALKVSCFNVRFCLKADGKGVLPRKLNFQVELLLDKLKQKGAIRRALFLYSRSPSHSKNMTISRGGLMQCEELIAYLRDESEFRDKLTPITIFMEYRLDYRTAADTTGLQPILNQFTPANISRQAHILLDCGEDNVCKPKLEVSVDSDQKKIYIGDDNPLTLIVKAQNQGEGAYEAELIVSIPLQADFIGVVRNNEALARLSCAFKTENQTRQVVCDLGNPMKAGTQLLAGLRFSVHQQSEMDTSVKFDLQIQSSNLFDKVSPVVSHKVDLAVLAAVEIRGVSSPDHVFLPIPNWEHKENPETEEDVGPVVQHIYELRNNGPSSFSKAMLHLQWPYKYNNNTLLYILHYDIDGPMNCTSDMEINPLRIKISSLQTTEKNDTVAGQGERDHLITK
# T2 sequence (P06756 891-1048 partner limits assumed): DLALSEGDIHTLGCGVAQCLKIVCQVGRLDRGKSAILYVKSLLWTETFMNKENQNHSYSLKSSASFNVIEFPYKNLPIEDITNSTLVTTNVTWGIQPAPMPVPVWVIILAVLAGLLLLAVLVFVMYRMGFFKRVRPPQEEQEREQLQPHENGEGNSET
# T2 sequence (P05106 27-788): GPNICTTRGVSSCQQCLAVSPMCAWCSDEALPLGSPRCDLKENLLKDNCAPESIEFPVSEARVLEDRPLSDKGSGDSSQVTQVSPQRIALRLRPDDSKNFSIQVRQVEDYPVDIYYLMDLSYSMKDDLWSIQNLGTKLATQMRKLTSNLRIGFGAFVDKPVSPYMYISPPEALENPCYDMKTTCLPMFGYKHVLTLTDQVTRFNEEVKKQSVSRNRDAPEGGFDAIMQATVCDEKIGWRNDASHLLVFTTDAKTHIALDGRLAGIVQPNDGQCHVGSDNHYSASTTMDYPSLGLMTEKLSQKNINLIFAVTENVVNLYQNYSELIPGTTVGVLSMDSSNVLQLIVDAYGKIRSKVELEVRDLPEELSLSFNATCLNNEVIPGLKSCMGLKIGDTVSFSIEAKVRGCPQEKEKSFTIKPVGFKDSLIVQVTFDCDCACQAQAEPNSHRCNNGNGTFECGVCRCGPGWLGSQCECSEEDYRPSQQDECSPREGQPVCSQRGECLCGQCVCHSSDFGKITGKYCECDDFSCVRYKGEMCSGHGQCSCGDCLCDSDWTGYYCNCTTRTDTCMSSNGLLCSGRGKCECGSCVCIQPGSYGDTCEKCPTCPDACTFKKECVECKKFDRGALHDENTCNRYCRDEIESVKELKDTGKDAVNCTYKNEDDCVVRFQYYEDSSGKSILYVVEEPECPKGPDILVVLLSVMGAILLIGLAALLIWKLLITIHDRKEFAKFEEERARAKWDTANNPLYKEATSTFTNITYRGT
Molecule,binding of EETI 2.5D-Axl to K562-αvβ3 cells with molar excess of cRGD (αvβ3 integrin [1]),binding to Gas6 in presence of saturating αvβ3 integrin (Gas6 [2]),binding to Gas6 in presence of saturating αvβ3 integrin (Gas6 [2]; listed as 2.5D-Axl),binding to αvβ3 integrin in presence of saturating Gas6 (αvβ3 integrin [3]),binding to αvβ3 integrin in presence of saturating Gas6 (αvβ3 integrin [3]; listed as 2.5D-Axl),equilibrium binding to cells transfected to overexpress αvβ3 integrin (αvβ3 integrin [4]),binding to soluble αvβ3 integrin (αvβ3 integrin [5]),binding to soluble αvβ3 integrin (αvβ3 integrin [5]; listed as 2.5D-Axl),Tm (° C.) [6],melting temperature (Tm) [6],"binding to Gas6 (Gas6 [7]; 0.2, 2 or 20 nM Gas6)","binding to Gas6 (Gas6 [7]; 0.2, 2 or 20 nM Gas6, listed as 2.5D-Axl)",tendency to aggregate [8],inhibition of PC3 cell adhesion to vitronectin (PC3 cells),affinity to sk0v3 cells (sk0v3 cells)
"EETI 2.5D-Axl: EETI 2.5D directly fused to N-terminus of wt Axl Ig1 (amino acids 21-132), SEQ ID NO: 84 (protein) GCPQGRGDWAPTSCSQDSDCLAGCVCGPNGFCGSRGTQAEESPFVGNPGNITGARGLTGTLRCQLQVQGEPPEVHWLRDGQILELADSTQTQVPLGEDEQDDWIVVSQLRITSLQLSDTGQYQCLVFLGHQTFVSQPGYVGLEGLP",binding specifically to αvβ3 integrin,not affected; also recorded: maintains affinity to Gas6,the same as when they were measured individually,not affected; also recorded: is not lost,the same as when they were measured individually,consistent with that previously determined for 2.5D,levels comparable to the mono-specific proteins; also recorded: affinities similar to its corresponding mono-specific components,matched that of 2.5D,52 ± 0.7 °C,~52 °C,levels comparable to the mono-specific proteins; also recorded: affinities similar to its corresponding mono-specific components,maintained wild-type Axl's affinity,–,–,–
2.5D-Fc: EETI-based knottin 2.5D fused to Fc domain of mouse Ig2a (protein) GCPQGRGDWAPTSCKQDSDCRAGCVCGPNGFCGEPRGPTIKPCPPCKCPAPNLLGGPSVFIFPPKIKDVLMISLSPIVTCVVVDVSEDDPDVQISWFVNNVEVHTAQTQTHREDYNSTLRVVSALPIQHQDWMSGKEFKCKVNNKDLPAPIERTISKPKGSVRAPQVYVLPPPEEEMTKKQVTLTCMVTDFMPEDIYVEWTNNGKTELNYKNTEPVLDSDGSYFMYSKLRVEKKNWVERNSYSCSVVHEGLHNHHTTKSFSRTPGK,–,–,–,–,–,–,–,–,–,–,–,–,no tendency to aggregate,low nanomolar range,–
2.5F-Fc: EETI-based knottin 2.5F fused to Fc domain of mouse Ig2a (protein) GCPRPRGDNPPLTCKQDSDCLAGCVCGPNGFCGEPRGPTIKPCPPCKCPAPNLLGGPSVFIFPPKIKDVLMISLSPIVTCVVVDVSEDDPDVQISWFVNNVEVHTAQTQTHREDYNSTLRVVSALPIQHQDWMSGKEFKCKVNNKDLPAPIERTISKPKGSVRAPQVYVLPPPEEEMTKKQVTLTCMVTDFMPEDIYVEWTNNGKTELNYKNTEPVLDSDGSYFMYSKLRVEKKNWVERNSYSCSVVHEGLHNHHTTKSFSRTPGK,–,–,–,–,–,–,–,–,–,–,–,–,–,low nanomolar range,greater affinity
